According to the supplement of paper PMC7125110:
± gives the standard error. For some assays here: Fewer inactive variants are shown than the library holds.

B1: glmS ribozyme (parent)
chain: AUAAAAGCGCCAGAACUACAGAAAUGUAGUUGACGAGGAGGAGGUUUAUCGAAUUUUCGGCGGAUGCCUCCAAA

What was measured:
Conditions in all cases: with glucosamine-6-phosphate
glucosamine-6-phosphate [1] = variants of: B1; test: kcat; higher = faster cleavage; RNA array
In short: (§1)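 kcat and KM were obtained from weighted Michaelis–Menten fits across concentrations of kobs values. Those came from one- or two-exponential decay fits to per-tile medians normalised to baseline and to non-cleaving reference variants. The variants were barcoded ribozymes transcribed in situ by E. coli RNA polymerase on sequenced MiSeq chips and tracked through a hybridised Cy3 probe at 37 °C, with 40 μM to 10 mM glucosamine-6-phosphate in HEPES/KCl/Mg(OAc)2 buffer flowed in.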

glucosamine-6-phosphate [2] = variants of: B1; test: KM; higher = weaker cofactor use; RNA array
In short: as §1

glucosamine-6-phosphate [3] = variants of: B1; test: self-cleavage kobs at 2500 uM GlcN6P; higher = faster cleavage; RNA array
In short: as §1

glucosamine-6-phosphate [4] = variants of: B1; test: self-cleavage kobs at 10000 uM GlcN6P; higher = faster cleavage; RNA array
In short: as §1

glucosamine-6-phosphate [5] = variants of: B1; test: self-cleavage kobs at 160 uM GlcN6P; higher = faster cleavage; RNA array
In short: as §1

glucosamine-6-phosphate [6] = variants of: B1; test: self-cleavage kobs at 640 uM GlcN6P; higher = faster cleavage; RNA array
In short: as §1

glucosamine-6-phosphate [7] = variants of: B1; test: self-cleavage kobs at 40 uM GlcN6P; higher = faster cleavage; RNA array
In short: as §1

| Variant | kcat (glucosamine-6-phosphate [1]) | KM (glucosamine-6-phosphate [2]) | self-cleavage kobs at 2500 uM GlcN6P (glucosamine-6-phosphate [3]) | self-cleavage kobs at 10000 uM GlcN6P (glucosamine-6-phosphate [4]) | self-cleavage kobs at 160 uM GlcN6P (glucosamine-6-phosphate [5]) | self-cleavage kobs at 640 uM GlcN6P (glucosamine-6-phosphate [6]) | self-cleavage kobs at 40 uM GlcN6P (glucosamine-6-phosphate [7]) |
| --- | --- | --- | --- | --- | --- | --- | --- |
| AUAAAAGCGCCAGAACUACAGAAAUGUAGUUGACGAGGAGGAGGUUUAUCGAAUUUUUGGCGGAUGCCUUCAAA [C58U C70U] | 0.000128 ± 1.9e-05 s⁻¹ | 4650 ± 1400 µM | 4.75e-05 ± 5.9e-06 s⁻¹ | 8.61e-05 ± 8.8e-06 s⁻¹ |  |  |  |
| AUAAAAGCGCCAGAACUACAGAAAUGUAGUUGACGAGGAGGAGGUUUAUCGAAUUUUGGGCGGAUGCCGCCAAA [C58G U69G] | 4.22e-05 ± 1.4e-05 s⁻¹ |  | 5.1e-05 ± 1.6e-05 s⁻¹ |  | 6.03e-05 ± 1.5e-05 s⁻¹ | 5.7e-05 ± 1.7e-05 s⁻¹ |  |
| AUAAAAGCGCCAGAACUACAGAAAUGUAGUUGACGAGGAGGAGGUUUAUCGAAUUUUUUGCGGAUGCCUCCAAA [C58U G59U] | < 1e-05 s⁻¹ |  |  | < 1e-05 s⁻¹ |  | < 1e-05 s⁻¹ | < 1e-05 s⁻¹ |
| AUAAAAGCGCCAGAACUACAGAAAUGUAGUUGACGAGGAGGAGGUUUAUCGAAUUUUCUGCGGAUGGCUCCAAA [G59U C67G] | 1.65e-05 ± 6.4e-06 s⁻¹ |  |  |  |  |  |  |
| AUAAAAGCGCCAGAACUACAGAAAUGUAGUUGACGAGGAGGAGGUUUAUCGAAUUUUCUGCGGAUGACUCCAAA [G59U C67A] | 1.11e-05 ± 3.2e-06 s⁻¹ |  |  |  |  |  | < 1e-05 s⁻¹ |
| AUAAAAGCGCCAGAACUACAGAAAUGUAGUUGACGAGGAGGAGGUUUAUCGAAUUUUUGGCGGAUGGCUCCAAA [C58U C67G] | 3.65e-05 ± 2.5e-06 s⁻¹ |  | 3.68e-05 ± 1.4e-05 s⁻¹ | 3.45e-05 ± 9.2e-06 s⁻¹ |  | 3.77e-05 ± 1.5e-05 s⁻¹ |  |
| AUAAAAGCGCCAGAACUACAGAAAUGUAGUUGACGAGGAGGAGGUUUAUCGAAUUUUCAGCGGAUGCCCCCAAA [G59A U69C] | 5.07e-05 ± 2.8e-06 s⁻¹ | 943 ± 240 µM |  | 4.7e-05 ± 1e-05 s⁻¹ |  |  |  |
| AUAAAAGCGCCAGAACUACAGAAAUGUAGUUGACGAGGAGGAGGUUUAUCGAAUUUUCAGCGGAUGACUCCAAA [G59A C67A] | 1.53e-05 ± 3.7e-06 s⁻¹ |  |  |  |  |  |  |
| AUAAAAGCGCCAGAACUACAGAAAUGUAGUUGACGAGGAGGAGGUUUAUCGAAUUUUUGGUGGAUGCCUCCAAA [C58U C61U] | < 1e-05 s⁻¹ |  |  |  |  | < 1e-05 s⁻¹ | < 1e-05 s⁻¹ |
| AUAAAAGCGCCAGAACUACAGAAAUGUAGUUGACGAGGAGGAGGUUUAUCGAAUUUUCUGCGGAUGCCUUCAAA [G59U C70U] | 9.84e-05 ± 6.1e-06 s⁻¹ | 899 ± 210 µM | 6.69e-05 ± 8.1e-06 s⁻¹ | 9.36e-05 ± 8.8e-06 s⁻¹ |  | 4.56e-05 ± 9.2e-06 s⁻¹ |  |
| AUAAAAGCGCCAGAACUACAGAAAUGUAGUUGACGAGGAGGAGGUUUAUCGAAUUUUCUGCGGAUGCCUCGAAA [G59U C71G] | 1.13e-05 ± 1.7e-07 s⁻¹ | 817 ± 71 µM |  |  | < 1e-05 s⁻¹ |  | < 1e-05 s⁻¹ |
| AUAAAAGCGCCAGAACUACAGAAAUGUAGUUGACGAGGAGGAGGUUUAUCGAAUUUUGGGCGGAUGCUUCCAAA [C58G C68U] | 4.76e-05 ± 7e-06 s⁻¹ |  | 4.14e-05 ± 1.3e-05 s⁻¹ | 4.34e-05 ± 7.8e-06 s⁻¹ | 7.05e-05 ± 1.9e-05 s⁻¹ | 5.45e-05 ± 1.2e-05 s⁻¹ |  |
| AUAAAAGCGCCAGAACUACAGAAAUGUAGUUGACGAGGAGGAGGUUUAUCGAAUUUUCCGCGGAUGCGUCCAAA [G59C C68G] | 2.78e-05 ± 1e-05 s⁻¹ |  |  |  |  |  |  |
| AUAAAAGCGCCAGAACUACAGAAAUGUAGUUGACGAGGAGGAGGUUUAUCGAAUUUUUGGCGGAUGCCCCCAAA [C58U U69C] | 2.82e-05 ± 7e-06 s⁻¹ |  | 5.56e-05 ± 1.6e-05 s⁻¹ | 2.52e-05 ± 5.6e-06 s⁻¹ |  |  |  |
| AUAAAAGCGCCAGAACUACAGAAAUGUAGUUGACGAGGAGGAGGUUUAUCGAAUUUUCUGCGGGUGCCUCCAAA [G59U A64G] | 6.46e-05 ± 1.1e-05 s⁻¹ |  | 7.94e-05 ± 2.1e-05 s⁻¹ | 5.92e-05 ± 9.3e-06 s⁻¹ |  |  | < 1e-05 s⁻¹ |
| AUAAAAGCGCCAGAACUACAGAAAUGUAGUUGACGAGGAGGAGGUUUAUCGAAUUUUUGGCGGCUGCCUACAAA [C58U A64C C70A] | 1.83e-05 ± 1.5e-06 s⁻¹ | 363 ± 120 µM |  |  |  |  | < 1e-05 s⁻¹ |
| AUAAAAGCGCCAGAACUACAGAAAUGUAGUUGACGAGGAGGAGGUUUAUCGAAUUUUGGGCGGAUGCCUCGAAA [C58G C71G] | 2.97e-05 ± 5.4e-06 s⁻¹ |  | 3.56e-05 ± 1.5e-05 s⁻¹ |  |  | 3.12e-05 ± 1.3e-05 s⁻¹ |  |
| AUAAAAGCGCCAGAACUACAGAAAUGUAGUUGACGAGGAGGAGGUUUAUCGAAUUUUGGGCGGAUGCCUCAAAA [C58G C71A] | 3.56e-05 ± 9.8e-06 s⁻¹ |  | 4.27e-05 ± 7.5e-06 s⁻¹ | 1.89e-05 ± 9.2e-06 s⁻¹ | 4.45e-05 ± 1e-05 s⁻¹ |  |  |
| AUAAAAGCGCCAGAACUACAGAAAUGUAGUUGACGAGGAGGAGGUUUAUCGAAUUUUCAGCGUAUGCCUCCAAA [G59A G63U] | < 1e-05 s⁻¹ | 294 ± 68 µM | < 1e-05 s⁻¹ |  |  |  | < 1e-05 s⁻¹ |
| AUAAAAGCGCCAGAACUACAGAAAUGUAGUUGACGAGGAGGAGGUUUAUCGAAUUUUCAGCGGAUGCCUUCAAA [G59A C70U] | 0.000157 ± 9e-06 s⁻¹ | 1970 ± 320 µM | 8.29e-05 ± 9.8e-06 s⁻¹ | 0.000133 ± 1.1e-05 s⁻¹ |  | 4.24e-05 ± 8e-06 s⁻¹ |  |
| AUAAAAGCGCCAGAACUACAGAAAUGUAGUUGACGAGGAGGAGGUUUAUCGAAUUUUCAGCGGAUGCCUGCAAA [G59A C70G] | 2.32e-05 ± 4.8e-06 s⁻¹ |  |  |  |  | 2.83e-05 ± 1.3e-05 s⁻¹ |  |
| AUAAAAGCGCCAGAACUACAGAAAUGUAGUUGACGAGGAGGAGGUUUAUCGAAUUUUUGGCGGAUGCAUCCAAA [C58U C68A] | 3.52e-05 ± 1.5e-05 s⁻¹ |  | 5.08e-05 ± 2.1e-05 s⁻¹ |  |  |  |  |
| AUAAAAGCGCCAGAACUACAGAAAUGUAGUUGACGAGGAGGAGGUUUAUCGAAUUUUCUGCGGAUGCUUCCAAA [G59U C68U] | 1.5e-05 ± 6.2e-06 s⁻¹ |  | 2.67e-05 ± 1.3e-05 s⁻¹ |  |  |  | < 1e-05 s⁻¹ |
